Assay results: PMC3812978 (The Journal of Cell Biology, 2013)

Target: the molecule itself
Experiment: AUC

B1: nontagged Atg38 (recombinant) (natural protein, budding yeast, UniProt Q05789 1-226, looked up)
chain: MSTLAEVYTIIEDAEQECRKGDFTNAKAKYQEAIEVLGPQNENLSQNKLSSDVTQAIDLLKQDITAKIQELELLIEKQSSEENNIGMVNNNMLIGSVILNNKSPINGISNARNWDNPAYQDTLSPINDPLLMSILNRLQFNLNNDIQLKTEGGKNSKNSEMKINLRLEQFKKELVLYEQKKFKEYGMKIDEITKENKKLANEIGRLRERWDSLVESAKQRRDKQKN
  stoichiometry N: 2
